B1: Chromodomain-helicase-DNA-binding protein 5, residues 411 to 463; numbered along this chain, Q8TDI0 (parent)
chain: EEDDHMEFCRVCKDGGELLCCDACPSSYHLHCLNPPLPEIPNGEWLCPRCTCP

Variants of: B1
Assay: abundance fitness (aPCA) (normalised: wild type 0, dead -1); higher = more abundant; growth selection in yeast, the domain comes from the species named
Details: Homo sapiens

Abundance fitness, by site and new letter:
I40: S -0.058; Q 0.132; L 0.147; E -0.129; K -0.104; W -0.633; H -0.151; D -0.534; P 0.052; Y -0.059; M -0.112; G -0.09; T 0.113; A -0.206; N 0.063; V -0.027; C 0.116; R -0.121
S26: L 0.001; T 0.002; C -0.107; A 0.044; G -0.036; R -0.106; Q -0.387; W -0.37; N 0.167; H -0.008; E 0.011; V 0.02; K -0.062; D 0.011; I -0.08
L37: T -0.005; A 0.031; Q -0.028; R -0.006; E -0.041; M -0.262; S 0.023; C -0.299; V -0.135; K -0.201; F -0.21; I -0.023; H 0.268; W -0.109; P -0.113; N -0.229; G -0.232; Y -0.109
P38: M -0.563; H -0.016; C -0.63; T -0.198; A 0.358; L 0.263; Y 0.17; S -0.13; I -0.564; F -0.083
S27: E -0.212; C -0.035; G -0.168; P -0.47; L -0.039; M -0.052; A 0.07; I -0.345; R -0.056; H 0.026; Q -0.064; N 0.02; D -0.3; F 0.152
E39: P 0.139; L -0.418; C -0.438; N 0.116; G -0.135; K -0.104; A 0.006; W -0.617; R -0.301; D -0.203; Q 0.008; Y -0.329; F -0.235; V 0.025; M -0.113; I -0.138; S 0.091; H 0.098; T -0.209
A23: W -0.043; T 0.08; P -0.488; H 0.088; R -0.022; Y 0.193; Q 0.305; K 0.092; D -0.082; G -0.014; S 0.301; M -0.324; C -0.018; L 0.068; F -0.708
Y28: F -0.007; M -0.262; V -0.428; H -0.376; W -0.188; I -0.535; C -0.653; R -0.527; P -0.565; Q -0.454; E -0.853; A -0.466; G -0.536; K -0.481; S -0.679; N -0.608; D -0.405; T -0.542
L33: H -0.706; W -0.594; Q -0.484; K -0.699; P -0.496; C -0.125; F -0.209; I 0.252; V -0.04; M -0.235; D -0.344; A -0.171; G -0.554; Y -0.482; E -0.452; T -0.198; R -0.6; N -0.971; S -0.487
C24: T -0.464; E -0.564; V -0.589; P -0.791; K -0.437; M -0.781; H 0.139; G -0.723; A -0.637; N -0.904; D -0.703; Y -0.606; Q -1.11; R -0.392; L -1.15; I -0.886
L30: V 0.019; S 0.02; I -0.002; M 0.137; N -0.04

Reference: the Human Domainome abundance scans (Beltran et al. 2025)
